In test [1] the target is recombinant MBP-tagged DmPABPC1 (D. melanogaster, UniProt P21187 1-634). In words: pull-down.
The target of test [2] is recombinant MBP-tagged HsPABPC1 (human, UniProt P11940 1-636). In words: pull-down.
recombinant MBP-tagged HsPABPC1, sequence (P11940 whole entry): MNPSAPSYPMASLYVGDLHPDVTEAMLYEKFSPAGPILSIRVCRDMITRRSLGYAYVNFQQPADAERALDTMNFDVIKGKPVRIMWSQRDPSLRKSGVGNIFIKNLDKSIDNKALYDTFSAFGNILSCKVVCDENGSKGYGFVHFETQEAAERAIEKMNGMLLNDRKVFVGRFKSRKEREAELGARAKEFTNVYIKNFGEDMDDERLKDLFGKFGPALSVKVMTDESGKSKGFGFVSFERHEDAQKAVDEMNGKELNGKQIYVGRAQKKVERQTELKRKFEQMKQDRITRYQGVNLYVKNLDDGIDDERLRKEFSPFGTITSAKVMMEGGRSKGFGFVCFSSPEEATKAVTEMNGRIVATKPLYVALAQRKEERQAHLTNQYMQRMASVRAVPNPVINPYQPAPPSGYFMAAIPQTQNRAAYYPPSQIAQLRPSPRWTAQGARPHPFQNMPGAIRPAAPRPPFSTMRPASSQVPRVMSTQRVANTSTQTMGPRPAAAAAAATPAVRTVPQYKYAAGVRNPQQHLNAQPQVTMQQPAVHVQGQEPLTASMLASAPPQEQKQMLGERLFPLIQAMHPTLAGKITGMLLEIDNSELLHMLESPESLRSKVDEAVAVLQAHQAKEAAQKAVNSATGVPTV

recombinant MBP-tagged DmPABPC1, sequence (P21187 whole entry): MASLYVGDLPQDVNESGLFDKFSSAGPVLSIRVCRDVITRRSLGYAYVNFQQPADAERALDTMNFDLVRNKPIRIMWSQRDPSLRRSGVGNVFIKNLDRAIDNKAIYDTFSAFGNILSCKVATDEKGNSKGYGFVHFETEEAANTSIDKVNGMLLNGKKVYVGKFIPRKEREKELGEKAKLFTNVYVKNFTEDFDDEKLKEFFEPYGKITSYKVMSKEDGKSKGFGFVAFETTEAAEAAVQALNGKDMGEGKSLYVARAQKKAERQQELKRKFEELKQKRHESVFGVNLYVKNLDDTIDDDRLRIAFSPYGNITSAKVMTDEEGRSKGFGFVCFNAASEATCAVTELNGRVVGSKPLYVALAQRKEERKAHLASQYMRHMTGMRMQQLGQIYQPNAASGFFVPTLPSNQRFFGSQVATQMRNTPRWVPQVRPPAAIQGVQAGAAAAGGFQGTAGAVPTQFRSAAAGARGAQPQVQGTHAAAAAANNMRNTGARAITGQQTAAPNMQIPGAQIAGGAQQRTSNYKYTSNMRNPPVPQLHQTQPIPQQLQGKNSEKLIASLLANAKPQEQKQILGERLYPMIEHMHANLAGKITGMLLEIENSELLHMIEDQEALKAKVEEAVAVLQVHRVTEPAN

B1: GST-GW182-SD (domain or fragment, D. melanogaster, UniProt Q8SY33 937-1384, looked up)
chain: NENKDWSVAQPTSAATAYTDLVQEFEPGKPWKGSQIKSIEDDPSITPGSVARSPLSINSTPKDADIFANTGKNSPTDLPPLSLSSSTWSFNPNQNYPSHSWSDNSQQCTATSELWTSPLNKSSSRGPPPGLTANSNKSANSNASTPTTITGGANGWLQPRSGGVQTTNTNWTGGNTTWGSSWLLLKNLTAQIDGPTLRTLCMQHGPLVSFHPYLNQGIALCKYTTREEANKAQMALNNCVLANTTIFAESPSENEVQSIMQHLPQTPSSTSSSGTSGGNVGGVGTSANNANSGSAACLSGNNSGNGNGSASGAGSGNNGNSSCNNSAAGGGSSSNNTITTVANSNLVGSSGSVSNSSGVTANSSTVSVVSCTASGNSINGAGTANSSGSKSSANNLASGQSSASNLTNSTNSTWRQTSQNQALQSQSRPSGREADFDYISLVYSIVDD
For the molecule B1, in test [1], the binding result was “binds”.

B2: GST-TNRC6B-SD (domain or fragment, human, UniProt Q9UPQ9-1 1361-1723, looked up)
chain: SSNASWPPEFQPGVPWKGIQNIDPESDPYVTPGSVLGGTATSPIVDTDHQLLRDNTTGSNSSLNTSLPSPGAWPYSASDNSFTNVHSTSAKFPDYKSTWSPDPIGHNPTHLSNKMWKNHISSRNTTPLPRPPPGLTNPKPSSPWSSTAPRSVRGWGTQDSRLASASTWSDGGSVRPSYWLVLHNLTPQIDGSTLRTICMQHGPLLTFHLNLTQGTALIRYSTKQEAAKAQTALHMCVLGNTTILAEFATDDEVSRFLAQAQPPTPAATPSAPAAGWQSLETGQNQSDPVGPALNLFGGSTGLGQWSSSAGGSSGADLAGASLWGPPNYSSSLWGVPTVEDPHRMGSPAPLLPGDLLGGGSDSI
In the case of B2, the binding result in test [2] is given as “binds”.
